In paper PMC12661434:

Molecular target: StayRose (His-tagged StayGold bearing 3-aminotyrosine at Y58) (Cytaeis uchidae)
Assay: SEC; Superdex 75 Increase 10/300 GL, 20 mM Hepes, 150 mM NaCl, pH 7.5, 0.8 ml/min; ~1 mg/ml (38 uM) protein loaded via a 0.5 ml loop

Substance “StayRose (His-tagged StayGold bearing 3-aminotyrosine at Y58)” has a stoichiometry N of 2.
